Blank lines part the entries; values can stand above or below the binder they belong to.
Molecular target: T1, CD20 (human, UniProt P11836 1-297)
T1 construct: whole, on cells; also called CD20 on Ramos tumor sections (CD20-positive human Burkitt lymphoma-derived cell line)
T1 sequence (looked up): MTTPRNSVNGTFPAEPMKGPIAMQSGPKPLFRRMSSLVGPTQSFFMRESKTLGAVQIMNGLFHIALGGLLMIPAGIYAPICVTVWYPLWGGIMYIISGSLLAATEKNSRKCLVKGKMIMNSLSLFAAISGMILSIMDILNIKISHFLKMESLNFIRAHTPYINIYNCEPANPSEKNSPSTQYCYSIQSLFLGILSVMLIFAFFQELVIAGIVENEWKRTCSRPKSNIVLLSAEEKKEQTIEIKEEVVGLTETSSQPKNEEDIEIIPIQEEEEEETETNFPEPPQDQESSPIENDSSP
Test: in vitro autoradiography on frozen Ramos and CCRF-CEM tumor sections
Method: Ramos cells of a CD20-positive human Burkitt lymphoma-derived cell line purchased from ATCC (American Type Culture Collection), and CCRF-CEM cells of a CD20-negative human acute lymphoblastic leukemia/T lymphocyte-like cell line were administered subcutaneously to the flanks of female BALB/c nu/nu mice (manufactured by Charles River Laboratories Japan, Inc.) at 5×10⁶ cells to prepare tumor-bearing mice. Thereafter, Ramos tumor and CCRF-CEM tumor were excised and embedded in Tissue-Tek O.C.T. Compound (Sakura Finetek Japan Co., Ltd.) to prepare frozen sections. The radioconjugates obtained in Example 1 and Comparative Example 1 were added to 1% bovine serum albumin-containing PBS each at 1 kBq/mL, and Ramos tumor section and CCRF-CEM tumor section were immersed therein. After contacting the sections with the imaging plate, they were read with a scanner-type image analyzer (Typhoon FLA 7000 manufactured by GE Healthcare Japan) to evaluate the level of radioactivity bound to the sections.

binding result: binds
B1: radioconjugate (Example 3): conjugate with rituximab by using 89Zr-labeled DOTAGA-DBCO (antibody, human IgG1, kappa)
heavy: not shown
light: QIVLSQSPAILSASPGEKVTMTCRASSSVSYIHWFQQKPGSSPKPWIYATSNLASGVPVRFSGSGSGTSYSLTISRVEAEDAATYYCQQWTSNPPTFGGGTKLEIKRTVAAPSVFIFPPSDEQLKSGTASVVCLLNNFYPREAKVQWKVDNALQSGNSQESVTEQDSKDSTYSLSSTLTLSKADYEKHKVYACEVTHQGLSSPVTKSFNRGEC
peptide: not shown
modifications: lysine side chain modified with R1 (crosslinker, bonded to the antibody Fc); disulfide between the two cysteines; N-terminal ethyl azide via diglycolic acid and eight PEGs, clicked to DBCO of the 89Zr-DOTAGA-DBCO complex; Fc region site-specifically modified by the peptide of SEQ ID NO: 17 through the crosslinker on its lysine; the peptide carries 89Zr-chelated DOTAGA-DBCO through a click reaction
notes: also called 89Zr complex-labeled antibody

binding result: binds
B2: radioconjugate (Comparative Example 2): conjugate with rituximab by using 89Zr-labeled DOTA-DBCO (antibody, human IgG1, kappa)
heavy: not shown
light: B1 light
peptide: not shown
modifications: lysine side chain modified with R1 (crosslinker, bonded to the antibody Fc); disulfide between the two cysteines; N-terminal ethyl azide via diglycolic acid and eight PEGs, clicked to DBCO of the 89Zr-DOTA-DBCO complex; Fc region site-specifically modified by the peptide of SEQ ID NO: 17 through the crosslinker on its lysine; the peptide carries 89Zr-chelated DOTA-DBCO through a click reaction

From patent US20240207464A1 (NIHON MEDI PHYSICS, published 2024)
